Test results reported in the supplement of paper PMC10567573.

B1: ZBED2 (parent)
chain: FHLAPARAGHHPNQYATCRLCGRQ

Variants of: B1
Assay: protein stability index of a GFP-peptide fusion (GPS, HEK-293T) (PSI 1-6); higher = more stable
Settings: c terminus: a fixed tail appended
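Note: lentivirally expressed fusions sorted by FACS into six bins by GFP to DsRed ratio, PSI derived from sequencing read proportions per bin multiplied by bin number.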

Protein stability index, by site and new letter:
G9: M 2.27 | L 2.55 | Q 2.11 | S 2.51 | T 2.44 | K 1.08 | N 2.11 | P 1.69 | E 1.97
H11: V 1.98 | G 2.01 | E 2.04 | N 1.39 | D 1.46
A6: M 1.67 | Q 1.8 | G 2.54 | T 1.51 | V 2.15
L3: Y 1.95 | G 1.53 | I 1.38 | M 1.84 | S 1.45 | P 3.45 | D 2.5 | T 2.25 | V 1.84 | N 2.23
Q24: T 1.65 | M 1.24 | S 2.03 | F 3.46 | H 2 | E 2.12 | C 1.84 | A 1.9 | G 2.41
Q14: K 2.58 | T 1.47 | C 2.11 | Y 2.31
A8: H 1.75 | W 3.08 | F 2.6 | G 2.87 | N 2.31 | K 1.69 | L 2.47 | T 1.83
R19: H 2.05 | W 1.3 | F 1.64
H2: F 1.42 | S 1.59 | P 2.78 | W 1.26 | C 1.66 | E 2.6 | K 1.95 | L 1.86
N13: D 1.43 | E 3.21 | K 1.77
A16: K 1.03 | Y 2.9 | S 1.82
G22: M 1.21 | N 1.56 | H 2.05 | T 2.82 | E 1.93
F1: V 2.74 | C 2.58 | I 2.21 | R 2.77 | T 2.45 | W 1.59 | S 3.33 | L 2.13 | A 2.9 | D 3.36
R23: A 1.85 | C 1.32 | N 2.07 | D 2 | W 2.46
C21: L 1.95 | H 2.52 | P 2.59 | T 2.72 | N 1.96 | I 1.74 | Q 2.08 | W 2.1 | Y 1.73 | S 3.43
C18: V 2.25 | K 2.22 | T 2.87 | H 2.27 | E 3.08 | M 1.93 | I 2.17 | Q 2.87
H10: N 1.55 | F 1.9 | R 1.21 | E 2.32 | M 2.81 | W 1.78 | I 2.3 | K 2.63 | G 1.34 | C 2.01
A4: C 2.48 | W 2.73 | H 1.95 | T 1.84 | N 1.48 | L 1.17 | Q 1.91 | I 2.53
Y15: V 1.57 | C 1.44 | H 2.14 | R 1.15 | I 1.63
R7: G 2.22 | D 2.34 | L 1.92 | N 2.15 | M 2.13 | A 1.74 | V 1.73 | Q 1.93 | H 2.61 | T 2.1 | K 2.59
T17: D 2.85 | N 1.99 | M 2.42 | I 1.55 | P 1.69 | F 2.23 | Y 2.15
P12: G 2.48 | I 1.95 | L 2.12 | A 1.5 | H 3.06 | V 1.49 | W 1.52 | Y 1.47
L20: S 2.22 | Q 1.18 | D 1.27 | P 2.23
P5: N 1.84 | S 1.24 | T 2.32 | G 1.77 | L 2 | K 1.83 | Q 2.02 | H 1.99 | Y 1.52
